The values that follow come from PMC10388305, “Synthesis and Evaluation of a Monomethyl Auristatin E—Integrin αvβ6 Binding Peptide–Drug Conjugate for Tumor Targeted Drug Delivery” (Journal of Medicinal Chemistry, 2023).

The nature of data set [1]: Serum stability in human serum. As to conditions: 37 °C, ethanol precipitation, radio RP-HPLC. It counts as in vitro ADME. As to the method: The serum stability of [^64Cu]PDC-1 was measured in both human and mouse serum at 37 °C at 1, 4, and 24 h.
Mouse serum or human serum (0.5 mL) was combined with an aliquot of [^64Cu]PDC-1 (≤25 μL, 3.9–4.7 MBq) and incubated at 37 °C. At each time point (1, 4, and 24 h), an aliquot (50–200 μL) was taken, proteins precipitated with absolute ethanol and removed by centrifugation at 1500g for 4 min. The ethanol solution was diluted with water (1 mL) and analyzed by RP-HPLC.

In another data set the test system is DX3puro (−) cells. The data set can be described thus: Cell binding assay, DX3puro. It counts as cell-based. Conditions: 1 h, 37 °C, γ-counter, n = 3. An excerpt: Binding to cells with minimal to no expression of integrin αvβ6 was low at 4.4 ± 0.1% to DX3puro cells and 7.9 ± 0.4% to pancreatic MIA PaCa-2 cells. Binding of [^64Cu]PDC-1 to DX3puroβ6 (+) and BxPC-3 (+) was reduced by adding increasing amounts of DOTA-PDC-1, illustrating that the αvβ6-selective uptake could be blocked (Figure S3). Internalization of [^64Cu]-PDC-1 into cells was high with >50% of the bound radioactivity internalized for all cells expressing the integrin αvβ6. In comparison, cell binding of [^64Cu]2 to DX3puroβ6 (+) cells was 58.8 ± 2.3, and 3.3 ± 0.4% to the DX3puro (−) cells.
Cell binding and internalization assay. Binding and internalization were determined as previously described. […] The fraction of bound radioactivity was determined with a γ-counter (by measuring cell pellet and combined supernatants). To determine the fraction of internalized radioactivity, the cells were re-pelleted, and re-suspended in acidic wash buffer (0.2 M sodium acetate, 0.5 M sodium chloride, pH = 2.5, 300 μL, 4 °C, 5 min) to release surface bound activity, followed by a wash with PBS (300 μL). The internalized fraction was determined with a γ-counter (cell pellet vs. radioactivity released into supernatant). A Wizard 1470 or Wizard 2 2470 automatic γ-counter (Perkin-Elmer, Waltham, MA) was used to measure radioactivity samples. […]

As usually defined, the share remaining is the share of the starting amount still present when the sample was taken. The compound `CC[C@H](C)[C@@H]([C@@H](CC(=O)N1CCC[C@H]1[C@H](OC)[C@@H](C)C(=O)N[C@H](C)[C@@H](O)c1ccccc1)OC)N(C)C(=O)[C@@H](NC(=O)[C@H](C(C)C)N(C)C(=O)OCc1ccc(NC(=O)[C@H](CCCNC(N)=O)NC(=O)[C@@H](NC(=O)CCOCCOCCNC(=O)CCN2C(=O)CC(SC[C@H](NC(=O)CN3CCN(CC(=O)O)CCN(CC(=O)O)CCN(CC(=O)O)CC3)C(=O)NCCOCCOCCOCCOCCOCCOCCOCCOCCOCCOCCOCCOCCOCCOCCOCCOCCOCCOCCOCCOCCOCCOCCOCCOCCOCCOCCOCCOCCC(=O)N[C@@H](CC(N)=O)C(=O)N[C@@H](C)C(=O)N[C@H](C(=O)N3CCC[C@H]3C(=O)N[C@@H](CC(N)=O)C(=O)N[C@@H](CC(C)C)C(=O)N[C@@H](CCCNC(=N)N)C(=O)NCC(=O)N[C@@H](CC(=O)O)C(=O)N[C@@H](CC(C)C)C(=O)N[C@@H](CCC(N)=O)C(=O)N[C@H](C(=O)N[C@@H](CC(C)C)C(=O)N[C@@H](C)C(=O)N[C@@H](CCC(N)=O)C(=O)N[C@@H](CCCNC(=N)N)C(=O)N[C@H](C(=O)N[C@@H](C)C(=O)N[C@@H](CCCNC(=N)N)C(=O)N[C@H](C(=O)NCCOCCOCCOCCOCCOCCOCCOCCOCCOCCOCCOCCOCCOCCOCCOCCOCCOCCOCCOCCOCCOCCOCCOCCOCCOCCOCCOCCOCCC(N)=O)[C@@H](C)O)C(C)C)C(C)C)C(C)C)C2=O)C(C)C)cc1)C(C)C` (stereo partly shown) [[^64Cu]PDC-1, metal not drawn] showed a share remaining at 1 h in data set [1] (1 h) greater than 98%. In data set [1] (4 h), this compound showed a share remaining at 4 h greater than 98%. This compound returned an amount remaining at 24 h in data set [1] (24 h) of 89%. In the data set on DX3puro (−) cells, the Cell binding was 4.4 ± 0.1%.
